{"source": "patent US20180256699A1", "about": "(University of Texas, published 2018)", "key": {"[1]": {"target": "T1, HP1096*, hydrophobic domain of ACT, residues 399-1096, MBP fusion, acylated (Bordetella pertussis, UniProt J7QLC0 399-1096)", "experiment": "ELISA: HP1096* coated equimolar with ACT, M1H5 IgG titrated from 1 nM, detected with anti-human Fc-HRP"}, "[2]": {"target": "T2, CAT400, catalytic domain of ACT, residues 1-400 (Bordetella pertussis, UniProt J7QLC0 1-400)", "experiment": "ELISA: CAT400 coated equimolar with ACT, M1H5 IgG titrated from 1 nM, detected with anti-human Fc-HRP"}, "[3]": {"target": "T3, Bordetella adenylate cyclase toxin (ACT), full-length, acylated (Bordetella pertussis, UniProt J7QLC0 1-1706)", "experiment": "cell-based or functional assay"}, "[4]": {"target": "T4, RTX751, RTX domain of ACT, residues 751-1706, non-acylated (Bordetella pertussis, UniProt J7QLC0 751-1706)", "T4 construct": "Expressed without CyaC", "experiment": "method and antibody format not stated"}, "[5]": {"target": "T2, CAT400, catalytic domain of ACT, …", "experiment": "ELISA: CAT400 coated equimolar with ACT, M2B10 IgG titrated from 1 nM, detected with anti-human Fc-HRP"}, "[6]": {"target": "T1, HP1096*, hydrophobic domain of ACT, …", "experiment": "ELISA: HP1096* coated equimolar with ACT, M2B10 IgG titrated from 1 nM, detected with anti-human Fc-HRP"}, "[7]": {"target": "T4, RTX751, RTX domain of ACT, residues …", "experiment": "ELISA: Bp-RTX751 coated, M2B10 IgG titrated"}, "[8]": {"target": "T5, Br-RTX751 (Bordetella bronchiseptica)", "T5 construct": "fragment", "experiment": "ELISA: Br-RTX751 coated, M2B10 IgG titrated"}, "[9]": {"target": "T6, Bpp-RTX751 (Bordetella parapertussis)", "T6 construct": "fragment", "experiment": "ELISA: Bpp-RTX751 coated, M2B10 IgG titrated"}, "[10]": {"target": "T4, RTX751, RTX domain of ACT, residues …"}, "[11]": {"target": "RTX985, RTX domain of ACT, residues 985-1706 (Bordetella pertussis, UniProt J7QLC0 985-1706)"}, "[12]": {"target": "T3, Bordetella adenylate cyclase toxin …", "experiment": "ELISA: ACT coated, M2B10 IgG titrated from 1 nM, detected with anti-human Fc-HRP"}}, "note": "Read-outs that look alike come from different tables or passages of the source.", "data": [{"binder": "M1H5 chimeric IgG1/κ antibody (antibody, V domains shown, also called M1H5 IgG; not shown: human IgG1 constant domains (IgG-Abvec vector); human kappa constant domain (Igκ-Abvec vector)) VH: EVNLVESGGDLVKPGGSLKLSCAASGFTFSSYGMSWVRQTPDKRLEWVATISSGGTYTYYPDSVKGRFTISRDNAKNTLYLQMSSLKSEDTAMYYCAREIMRGGGYYFDYWSQGTTLTVSS VL: DIQMIQSTSSLSASLGDRVTISCRASQDISNYLNWYQQKPDGTVKLLIYYTSRLHSGVPSRFSGSGSGTDYSLTISNLEQEDIATYFCQQGNTLPYTFGGGTKLEIKR", "values": [{"measurement": "binding result", "setting": "[1]", "value": "no binding (tested: 1 nM)"}, {"measurement": "binding result", "setting": "[2]", "value": "no binding (tested: 1 nM)"}]}, {"binder": "M1E2 single-chain antibody fragment (scAb) (scFv, not shown: a dimerising Fc or GST) scFv: DIVMTQSPAIMSASLGERVTMTCTASSSVSSSYLHWYQQKPGSSPKLWIYSTSNLASGVPARFSGSGSGTSYSLTISSMEAEDAATYYCHQYHRSPPTFGGGTKLEIKRGGGGGGSGGGGSGGGGSGGGGSQVQLKQSGAELVRPGTSVKVSCKASGYAFTNYLIEWVKQRPGQGLEWIGVINPGIGNTNYNEKFKGKATLTADKSSSTVYMQLSSLTSDDSAVYFCARGLNYGSSQHWYFDVWGAGTTVTVSS", "values": [{"measurement": "reduction of intracellular cAMP level in J774A.1 cells, scAb at 160-fold molar excess over ACT", "setting": "[3]", "value": "> 90", "unit": "%"}]}, {"binder": "M1H1 single-chain antibody fragment (scAb) (scFv, not shown: a dimerising Fc or GST) scFv: DIVMTQSPAIMSASLGERVTMTCTASSSVSSSYLHWYQQKPGSSPKLWIYSTSNLASGVPARFSGSGSGTSYSLTISSMEAEDAATYYCHQYHRSPPTFGGGTKLELKRGGGGGGSGGGGSGGGGSGGGGSQVQLQQSGAELVRPGTSVKVSCKASGYAFTNYLIEWVKQRPGQGLEWIGVINPGIGNTNYNEKFKGKATLTADKFSSTASMQLSSLTSDDSAVYFCARGLNYGSSQHWYFDVWGAGTSVTVSS", "values": [{"measurement": "reduction of intracellular cAMP level in J774A.1 cells, scAb at 160-fold molar excess over ACT", "setting": "[3]", "value": "> 90", "unit": "%"}]}, {"binder": "M2B10 single-chain antibody fragment (scAb) (scFv) scFv: DIVMTQSPAILSASLGERVTMTCTASSSVSSSYLHWYQQKPGSSPKLWIYSTSNLASGVPARFSGSGSGTSYSLTISSMEAEDAATYYCHQYHRSPPTFGAGTKLEIKRGGGGGGSGGGGSGGGGSGGGGSEVQLQQSGAELVRPGTSVKVSCKASGYAFTNYLIEWVKQRPGQGLEWIGVINPGIGNTNYNEKFKGKATLTADKSSSTVYMQLSSLTSDDSAVYFCARGLNYGSSQHWYFDVWGAGTSVTVSS", "values": [{"measurement": "reduction of intracellular cAMP level in J774A.1 cells, scAb at 160-fold molar excess over ACT", "setting": "[3]", "value": "> 90", "unit": "%"}]}, {"binder": "M2B10 antibody (format not stated) (antibody, V domains shown) VH: EVQLQQSGAELVRPGTSVKVSCKASGYAFTNYLIEWVKQRPGQGLEWIGVINPGIGNTNYNEKFKGKATLTADKSSSTVYMQLSSLTSDDSAVYFCARGLNYGSSQHWYFDVWGAGTSVTVSS VL: DIVMTQSPAILSASLGERVTMTCTASSSVSSSYLHWYQQKPGSSPKLWIYSTSNLASGVPARFSGSGSGTSYSLTISSMEAEDAATYYCHQYHRSPPTFGAGTKLEIKR", "values": [{"measurement": "IC50, J774A.1 macrophage cell line intoxication assay with 125 ng/mL ACT (0.7 nM)", "setting": "[3]", "value": 6000, "unit": "pM"}, {"measurement": "Kd", "setting": "[4]", "value": "~1200", "unit": "pM"}]}, {"binder": "M2C2 antibody (format not stated) (antibody, V domains shown) VH: QVQLQQSGPELGKPGASVKISCKASGYLFTGYNIYWVKQSHRKSLEWIGYINPYNGDTSYNQKSKGKATLTVDRSSSTAYMHLNSLTSEDSAIYFCARGYYVRPLDYWGQGTTLTVSS VL: DIVLTQSPAIMSASLGERVTMTCTASSSVSSSYLHWYQQKPGSSPKLWIYSTSNLASGVPARFSGSGSGTSYSLTISSMEAEDAATYYCHQYHRSPPTFGGGTKLEIKR", "values": [{"measurement": "IC50, J774A.1 macrophage cell line intoxication assay with 125 ng/mL ACT (0.7 nM)", "setting": "[3]", "value": 8100, "unit": "pM"}, {"measurement": "Kd", "setting": "[4]", "value": "~1500", "unit": "pM"}]}, {"binder": "M2B10 chimeric IgG1/κ antibody (antibody, V domains shown, also called M2B10 IgG; not shown: human IgG1 constant domains (IgG-Abvec vector); human kappa constant domain (Igκ-Abvec vector)) VH: EVQLQQSGAELVRPGTSVKVSCKASGYAFTNYLIEWVKQRPGQGLEWIGVINPGIGNTNYNEKFKGKATLTADKSSSTVYMQLSSLTSDDSAVYFCARGLNYGSSQHWYFDVWGAGTSVTVSS VL: DIVMTQSPAILSASLGERVTMTCTASSSVSSSYLHWYQQKPGSSPKLWIYSTSNLASGVPARFSGSGSGTSYSLTISSMEAEDAATYYCHQYHRSPPTFGAGTKLEIKR", "values": [{"measurement": "binding result", "setting": "[5]", "value": "no binding (tested: 1 nM)"}, {"measurement": "binding result", "setting": "[6]", "value": "no binding (tested: 1 nM)"}, {"measurement": "EC50 (read off the curve)", "setting": "[7]", "value": "~50", "unit": "pM"}, {"measurement": "EC50 (read off the curve)", "setting": "[8]", "value": "~50", "unit": "pM"}, {"measurement": "EC50 (read off the curve)", "setting": "[9]", "value": "~50", "unit": "pM"}, {"measurement": "EC50 (read off the curve)", "setting": "[10]", "value": "~40", "unit": "pM"}, {"measurement": "EC50 (read off the curve)", "setting": "[11]", "value": "~40", "unit": "pM"}, {"measurement": "EC50 (read off the curve)", "setting": "[12]", "value": "~40", "unit": "pM"}]}, {"binder": "M1F10 single-chain antibody fragment (scAb) (scFv, not shown: a dimerising Fc or GST) scFv: DIVMTQSPASLAVSLGQRATISCRASESVGNYGISFTNWYQQKPGQPPKLLIYAASNLESGIPARFSGSGSGTDFTLNIHPVEEEDAATYYCQQSNEDPYTFGGGTKLEIKRGGGGGGSGGGGSGGGGSGGGGSEVKLVESGGDLVKPGGSLKLSCAASGFTFSSYGMSWVRQTPDKRLEWVATISSGGTYTYYPDSVKGRFTISRDNAKNTLYLQMSSLKSEDTAMYYCAREIMRGGGYYFDYWGQGTTLTVSS", "values": [{"measurement": "reduction of intracellular cAMP level in J774A.1 cells, scAb at 160-fold molar excess over ACT", "setting": "[3]", "value": "> 90", "unit": "%"}]}, {"binder": "M2C2 single-chain antibody fragment (scAb) (scFv, not shown: a dimerising Fc or GST) scFv: DIVLTQSPAIMSASLGERVTMTCTASSSVSSSYLHWYQQKPGSSPKLWIYSTSNLASGVPARFSGSGSGTSYSLTISSMEAEDAATYYCHQYHRSPPTFGGGTKLEIKRGGGGGGSGGGGSGGGGSGGGGSQVQLQQSGPELGKPGASVKISCKASGYLFTGYNIYWVKQSHRKSLEWIGYINPYNGDTSYNQKSKGKATLTVDRSSSTAYMHLNSLTSEDSAIYFCARGYYVRPLDYWGQGTTLTVSS", "values": [{"measurement": "reduction of intracellular cAMP level in J774A.1 cells, scAb at 160-fold molar excess over ACT", "setting": "[3]", "value": "> 90", "unit": "%"}]}]}
